Results from article doi:10.1101/2024.06.03.596960 (bioRxiv, 2024).
Read-outs that look alike come from different tables or passages of the source.

B1: ZBTB16 BTB domain (residues 1-130) (domain or fragment)
chain: MDLTKMGMIQLQNPSHPTGLLCKANQMRLAGTLCDVVIMVDSQEFHAHRTVLACTSKMFEILFHRNSQHYTLDFLSPKTFQQILEYAYTATLQAKAEDLDDLLYAAEILEIEYLEEQCLKMLETIQASDD

Key:
Test in all cases: AlphaScreen or HTRF
[1] = molecular target: biotinylated ^AviSKP1-FBXO22(12-403) (UniProt P63208)
His10-TEV-BACH1^BTB = His10-TEV-BACH1^BTB (UniProt O14867)
[2] = molecular target: biotinylated ^AviSKP1-FBXO22(12-403) (UniProt P63208); remark: listed apart in the source

biotinylated ^AviSKP1-FBXO22(12-403), sequence (P63208 2-163, chain 1 of 2): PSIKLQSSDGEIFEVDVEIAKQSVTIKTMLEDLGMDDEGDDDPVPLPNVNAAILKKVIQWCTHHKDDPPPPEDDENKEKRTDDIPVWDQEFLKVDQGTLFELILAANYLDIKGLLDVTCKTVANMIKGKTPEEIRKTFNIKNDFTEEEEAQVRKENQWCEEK
biotinylated ^AviSKP1-FBXO22(12-403), sequence (Q8NEZ5 12-403, chain 2 of 2, further chain): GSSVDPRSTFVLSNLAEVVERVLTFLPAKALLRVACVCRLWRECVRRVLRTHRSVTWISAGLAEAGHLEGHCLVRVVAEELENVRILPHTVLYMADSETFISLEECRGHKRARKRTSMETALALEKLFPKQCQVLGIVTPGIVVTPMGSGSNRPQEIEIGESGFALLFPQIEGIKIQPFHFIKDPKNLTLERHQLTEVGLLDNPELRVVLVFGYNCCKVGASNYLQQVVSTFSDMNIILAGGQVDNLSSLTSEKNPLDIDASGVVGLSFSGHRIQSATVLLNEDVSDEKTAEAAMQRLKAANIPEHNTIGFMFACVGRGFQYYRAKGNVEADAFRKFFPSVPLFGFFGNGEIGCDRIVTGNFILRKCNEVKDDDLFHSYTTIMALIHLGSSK

Row | Molecule | IC50 [1] [nM] | IC50 (His10-TEV-BACH1^BTB) [nM] | further results
1 | BACH1^BTB F125A (from UniProt O14867 7-128) (domain or fragment) | 7460 |  | 
2 | BACH1^BTB F9A (from UniProt O14867 7-128) (domain or fragment) | 320 |  | 
3 | SKP1-FBXO22(Q307E) (cancer-associated, TCGA) (from UniProt P63208 2-163; Q8NEZ5 12-403) (complex) |  | 575 | 
4 | SKP1-FBXO22(R367L) (cancer-associated, TCGA) (from UniProt P63208 2-163; Q8NEZ5 12-403) (complex) |  | 1040 | 
5 | BACH1^BTB Y11F (from UniProt O14867 7-128) (domain or fragment) | 140 |  | 
6 | BACH1^BTB Y11A (from UniProt O14867 7-128) (domain or fragment) | 2660 |  | 
7 | KEAP1 BTB domain (residues 48-180) (from UniProt Q14145 48-180) (domain or fragment) | 150 |  | 
8 | BACH1^BTB E12R (from UniProt O14867 7-128) (domain or fragment) | 149 |  | 
9 | BACH2 BTB domain (residues 8-131) (from UniProt Q9BYV9 8-131) (domain or fragment) | 85 |  | 
10 | BACH1^BTB F125Y (from UniProt O14867 7-128) (domain or fragment) | 656 |  | 
11 | BACH1 BTB domain (residues 7-128), wild type, tag-free (from UniProt O14867 7-128) (domain or fragment) | 64 |  | 
12 | SKP1-FBXO22(R376D) (from UniProt P63208 2-163; Q8NEZ5 12-403) (complex) |  | 900 | 
13 | BACH1^BTB S13D (from UniProt O14867 7-128) (domain or fragment) | 2460 |  | 
14 | SKP1-FBXO22(Q307R) (cancer-associated, TCGA) (from UniProt P63208 2-163; Q8NEZ5 12-403) (complex) |  | 165 | 
15 | BACH1^BTB S13A (from UniProt O14867 7-128) (domain or fragment) | 183 |  | 
16 | SKP1-FBXO22(R376P) (from UniProt P63208 2-163; Q8NEZ5 12-403) (complex) |  | 1350 | 
17 | SKP1-FBXO22(R367W) (cancer-associated, TCGA) (from UniProt P63208 2-163; Q8NEZ5 12-403) (complex) |  | 1480 | 
18 | B1 |  |  | IC50 [2]: 622 nM
